For assay [1], the target named is T1, Aβ1–40 (Homo sapiens, UniProt P05067). Put plainly: IM-MS analysis of complex formation with Aβ1–40. It is filed as binding. The following applies: alanine substituted variants of leucine enkephalin.
For assay [2], the target named is T1, Aβ1–40. As to conditions: cited from earlier work.
Assay [3] concerns Aβ. As to conditions: incubated in excess with leucine enkephalin, compared with control; cited from earlier work.

T1 sequence (P05067 672-711 limits assumed): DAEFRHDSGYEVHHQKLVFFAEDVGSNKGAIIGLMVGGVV

For “YGGFA: alanine substituted variant of leucine enkephalin (Leu-enkephalin; UniProt P01210 230-234, looked up, variant L5A)”, the “Complex formation with Aβ1–40 (IM-MS signal)” value (shortened to “Complex formation”) in assay [1] was “no measureable complex signals”.

Turning to Leucine enkephalin acetate hydrate, the “Stoichiometric ratios of Aβ:leucine enkephalin complexes” value in assay [2] is 1:1 to 1:3, and from 2:1 to 2:3. Also, the “Aβ fibrillation (TEM and gel)” value in assay [3] is “decreased Aβ fibrillation”.

For “YGAFL: alanine substituted variant of leucine enkephalin (Leu-enkephalin; UniProt P01210 230-234, looked up, variant G3A)”, the “Complex formation” value in assay [1] is given as “complexes formed”.

For the substance “AGGFL: alanine substituted variant of leucine enkephalin (Leu-enkephalin; UniProt P01210 230-234, looked up, variant Y1A)”, the “Complex formation” value in assay [1] is “complexes formed”.

With “YGGAL: alanine substituted variant of leucine enkephalin (Leu-enkephalin; UniProt P01210 230-234, looked up, variant F4A)”, in assay [1], the “Complex formation” value is “no measureable complex signals”.

The values are drawn from paper PMC5724361 (ACS chemical biology, 2017).
